Laboratory results taken from US7265091B2, “Methods and compositions for treating male erectile dysfunction” (The Regents of the University of California, priority 2000, dated 2007).

Key:
[1] = test system: dorsal nerve, intracavernous smooth muscle cells and endothelial cells; experiment: Transmission electron microscopy of penile tissue (Example 2); assay type: in vivo, rat; settings: castrated rats, testosterone replacement
From the text: Thick sections were cut and stained with toluidine blue to select specific areas for thin sectioning. Thin sections were cut, stained with both uranyl acetate and Reynold's Lead, and examined under the Phillips Tecnai 10 transmission electron microscope. Penile tissues from 4 randomly chosen rats in each subgroups were subjected to electron microscopic examinations.

[2] = test system: penile smooth muscle (alpha actin); experiment: Alpha-smooth muscle actin immunohistochemistry of rat penis with image analysis; assay type: in vivo; settings: castrated rats
[3] = test system: venogenic erectile dysfunction in castrated rats; experiment: Pharmacologic cavernosometry, prevention trial in castrated rats (Experiment 2); assay type: in vivo, rat; settings: castrated rats treated at castration, cavernosometry 9 weeks after castration
From the text: For the prevention trial of VEGF in rats with venogenic erectile ED, adult males were castrated and immediately treated with hormone, intracavernosal VEGF. […] Control animals received an silastic implant containing saline (n=3), an intracavernous injection of normal saline (n=3) or an […] transfection vector expressing lacZ reporter gene without the VEGF gene (AAV-LacZ, n=11).
A 1.5 cm oblique incision was made in the lower abdominal skin extending from the midline just above the penile hilum to below the level of the glans about 1 cm lateral to the midline. The skin was sharply dissected from the anterior surface of the penis and then the penis was retracted anteriorly using a towel clamp placed around it atraumatically with the foreskin left intact. Using blunt dissection the penile base and crura were exposed. The ischiocavernosus muscles were sharply dissected off the anterior surface of the crus until the white of the tunica albuginea of the corpora cavernosa was identified. The crus was then gently cannulated using a 23 gage butterfly needle, and saline flush with a visual erectile response was used to confirm that the needle tip was truly intracavernosal. The intracavernosal injections were then administered with either VEGF protein (Calbiochem, La Jolla, Calif. #676472) at the dosage 4 ug/injection (in 0.1 cc PBS with 0.1% BSA), AAV-VEGF (10^10 viral particles in 0.1 cc NS), AAV-LacZ (10^10 viral particles in 0.1 cc NS), or 0.1 ml NS alone. The AAV-VEGF and AAV-LacZ constructs were a generous gift from Dr. Yuet W. Kan (Howard Hughes Medical Research Institute, San Francisco, Calif.).^19,20 Following injection, the needle was left in place for 5 minutes and then removed to allow the medication to diffuse throughout the cavernosal space. Immediately thereafter, pinpoint electrocautery was applied to the needle hole for hemostasis and then the wound was closed and the animal recovered as above.
(§1) Following castration, testosterone- or saline-filled silastic implants were placed in the subcutaneous tissue of the anterior abdominal wall, as previously described.^17 Implants were prepared using sterile silastic tubing (Dow Coming, Midland, Mich. #602-265, inner diameter 0.062″) that was filled with testosterone propionate powder (Sigma Chemical, St. Louis, Mo.) with the aid of wall suction.
To perform pharmacologic cavemosometry, both the right and left crura were separately cannulated using 23 gauge butterfly needles as described above. One cannula was flushed with sterile heparinized saline (100 U heparin/ml NS) and attached to a pressure detector for continuous intracorporal pressure (ICP) monitoring as previously described.^11 The contralateral cannula was attached to an infusion pump (Harvard Pump, Southwick, Mass. #55-2222), filled with sterile dilute heparinized saline (20 U heparin/ml NS). The baseline ICP was recorded (flaccid ICP) and then a dose of papavarine (1 mg in 0.1 cc NS) was administered through the infusion cannula. Five minutes was allowed for the papavarine to diffuse throughout the corpora and then the infusion cannula was flushed with heparinized saline and the pressure monitor cannula vented to normalize ICP after flushing. After 5 minutes more, the ICP was again recorded (ICP after papavarine) and the infusion started. An infusion rate of 0.05 ml/min was started and increased (by 0.05 ml/min every 10 seconds) until the ICP started to rise. Subsequent increases in inflow rate were made only after the ICP reached a plateau pressure. By slowly adjusting the inflow rate, an intracorporal pressure of 100 cm H2O (erectile pressure) was reached and the infusion rate required to maintain this pressure recorded (the maintenance rate). After this pressure was steady for 20 seconds, the infusion was terminated and the change in ICP over the subsequent 60 seconds was recorded (the drop rate).

[4] = Serum testosterone radioimmunoassay; assay type: in vivo, rat; settings: castrated rats given subcutaneous testosterone implants
Description: as §1

[5] = test system: cavernous nerve injury in rats; experiment: Maximal intracavernous pressure after bilateral cavernous nerve freezing (Example 9, VENT); assay type: in vivo, rat; settings: 3 months after bilateral cavernous nerve freezing, intracavernous injection
Description: (§2) Three months old Sprague-Dawley rats (N=30) were used: 6 underwent a sham operation; 24 underwent bilateral cavernous nerve freezing and then randomly divided into four groups of 6 each. The four groups of rats received intracavernous injection of one of the following: 1) phosphate buffered saline (PBS), 2) VEGF protein (4 μg), 3) adeno-associated virus (AAV)-BDNF, and 4). VEGF+AAV-BDNF. Erectile function was assessed by cavernous nerve electrostimulation 3 months later and samples of penile tissue were obtained for electron microscopy and immunohistochemical studies.

[6] = test system: blood vessels and nerve fibers in the penis; experiment: Penile tissue histology, nNOS staining and electron microscopy (Example 9); assay type: in vivo, rat; settings: 3 months after bilateral cavernous nerve freezing
Description: as §2

[7] = test system: major pelvic ganglia (MPG); experiment: Nerve fiber outgrowth from cultured major pelvic ganglia; assay type: cell-based, rat; parameters: Average fiber length / FIBER LENGTH (average lengths of the growing fibers): unit not given here
Description: Each freshly isolated MPG was cut into 8 pieces of approximately equal size and each piece was then attached to a Matrigel-coated coverslip. The MPG pieces were cultured in serum-free medium supplemented with phosphate-buffered saline (PBS, control), 50 ng/ml of vascular endothelial growth factor (VEGF), 20 ng/ml of brain-derived neurotrophic factor (BDNF), or VEGF+BDNF. After 2 days of incubation, the ganglial tissues with their outgrowing nerve fibers were stained for the expression of NADPH diaphorase and acetylcholinesterase (AchE).
We have been using several experimental systems to test the efficacy of combination growth factor therapies for impotence. One system employs cultured rat major pelvic ganglia (MPG) that are known to innervate all urogenital organs, including the penis. We discovered that the cultured MPG are able to sprout new nerve fibers (nerve regeneration) from the axonal ends during the first 3 days of culture, especially when treated with VEGF, BDNF, NT-3, or NT-4.

[8] = test system: NADPH diaphorase-positive nerve fibers and neurons; experiment: NADPH diaphorase staining of penile tissue and major pelvic ganglia; assay type: in vivo, rat
Description: Sections were incubated with 0.1 mM. NADPH, 0.2 mM. nitroblue tetrazolium, 0.2% Triton X-100 in 0.1 M. PO4, pH 8.0, for 60 min. at room temperature. The reaction was terminated by washing in buffer. Slides were then coverslipped with buffered glycerin as the mounting medium.^13
The presence of NADPH diaphorase-positive nerves was evidenced as a blue stain in the major pelvic ganglia, dorsal nerves and cavernous tissue, and the staining pattern was assessed by counting the number of positive neurons in 4 random fields (magnification 400×). The percentage of darkly and lightly stained cells in the major pelvic ganglia was calculated by dividing the number of these cells by the total number of positive cells.

[9] = test system: Erectile Dysfunction Induced by Hypercholesterolemia in a Rat Model; experiment: Erectile function in rats fed a high cholesterol diet (Example 5); assay type: in vivo; settings: 6 months cholesterol diet, 4 months after intracavernous treatment
Description: Twenty-one Sprague-Dawley rats were used. All rats were fed a 2.5% cholesterol diet with added lard starting at 2 weeks of age for 6 months. The rats were divided into three groups. All groups after two months of a high cholesterol diet underwent serum evaluation of cholesterol and intracavernous injection of saline or treatment. Group 1, the control group, received intracavernous injection of saline, group 2, the VEGF group, received intracavernous injection of 4 ug of VEGF, and group 3, the AAV-BDNF group received 15 ug of BDNF. After six months of cholesterol diet and 4 months of treatment, all rats were subjected to cavernous nerve electrostimulation, cavernosometry with intracavernous papaverine injection, and infusion cavernosometry with heparinized saline to measure erectile function.

[10] = test system: Animal Model for Neurogenic Impotence; experiment: Maximal intracavernous pressure on electrostimulation after bilateral cavernous nerve freezing (Example 3); assay type: in vivo, rat; settings: 8 weeks after bilateral cavernous nerve freezing
From the text: Male Sprague-Dawley rats (N=34; age, 3 months; weight, 350 to 400 gm.) were divided into two groups: sham (N=10) and experimental (N=24). The rats in the sham group underwent periprostatic dissection and identification of bilateral cavernous nerves without other manipulation; those in the experimental groups underwent bilateral cavernous nerve freezing. Several minutes after surgery, half of the experimental animals (LacZ group, N=12) received intracavernous AAV-LacZ injection, and the remainder (BDNF group, N=12) received AAV-BDNF. Half of the rats in each group were sacrificed at week 4 and the rest at week 8 for collection of penile tissue. In all animals, erectile function was assessed by electrostimulation of the cavernous nerves before sacrifice.
Under intraperitoneal pentobarbital sodium anesthesia (50 mg./kg.), each animal was placed on a heating pad to maintain its body temperature at 37° C. […]
At weeks 4 and 8 postoperatively, rats in each group were re-explored for direct electrostimulation of the cavernous nerves before tissue collection. […] Each cavernous nerve was stimulated and intracavernous pressures were measured and recorded with a Macintosh computer programmed with LabVIEW 4.0 software (National Instruments, Austin, Tex.). The pressure for each animal was determined by the mean of both sides.

[11] = 50 ng/ml VEGF, 20 ng/ml BDNF, 2 days of incubation

Molecule: CCC(=O)O[C@H]1CC[C@H]2[C@@H]3CCC4=CC(=O)CC[C@]4(C)[C@H]3CC[C@]12C [Testosterone, testosterone propionate, reference compound]
- nerve fibers and myelin sheath appearance [1]: appeared similar to the sham group
- quantity of penile smooth muscle, qualitative [2]: returns to normal morphology
- Drop Rate in 1 min. [3]: 11.7(+/−16) cm H2O
- Flaccid ICP [3]: 28.9 cm H2O
- ICP After Papavarine [3]: 87.7(+/−26) cm H2O
- Maintenance Rate [3]: 0.09(+/−0.1) ml/min
- serum testosterone titer [4]: in the normal range

B1: BDNF: brain-derived neurotrophic factor added to MPG culture medium (Examples 7, 8) (protein, UniProt P23560 19-247, looked up)
Neurotrophic factor BDNF …: APMKEANIRGQGGLAYPGVRTHGTLESVNGPKAGSRGLTSLADTFEHVIEELLDEDQKVRPNEENNKDADLYTSRVMLSSQVPLEPPLLFLLEEYKNYLDAANMSMRVRRHSDPARRGELSVCDSISEWVTAADKKTAVDMSGGTVTVLEKVPVSKGQLKQYFYETKCNPMGYTKEGCRGIDKRHWNSQCRTTQSYVRALTMDSKKRIGWRFIRIDTSCVCTLTIKRGR
- maximal intracavernous pressure (MICP), mean±SEM [5]: 69.75±8.54 cm H2O
- nNOS positive nerve fibers in the dorsal nerves compared to PBS group [6]: increased number
- AchE staining intensity [7, 11]: 1,102±211 IDV
- NADPH staining intensity [7, 11]: 9,376±111 IDV
- NADPH Diaphorase-positive Nerve Fibers, Cavernous Tissue ([8]; 4 Weeks): 45.5 ± 10.5
- NADPH Diaphorase-positive Nerve Fibers, Dorsal Nerve ([8]; 4 Weeks): 65.5 ± 15.5
- NADPH Diaphorase-positive Neurons in the Major Pelvic Ganglion, % Dark Stain ([8]; 4 Weeks): 62.1 ± 13.1 %
- NADPH Diaphorase-positive Neurons in the Major Pelvic Ganglion, % Light Stain ([8]; 4 Weeks): 38.6 ± 11.8%
- NADPH Diaphorase-positive Neurons in the Major Pelvic Ganglion, Dark Stain ([8]; 4 Weeks): 61.8 ± 23.7
- NADPH Diaphorase-positive Neurons in the Major Pelvic Ganglion, Light Stain ([8]; 4 Weeks): 33.8 ± 9
- NADPH Diaphorase-positive Neurons in the Major Pelvic Ganglion, Total ([8]; 4 Weeks): 95.7 ± 22.4
- NADPH Diaphorase-positive Nerve Fibers, Cavernous Tissue ([8]; 8 Weeks): 66.1 ± 15.2
- NADPH Diaphorase-positive Nerve Fibers, Dorsal Nerve ([8]; 8 Weeks): 86.4 ± 12.2
- NADPH Diaphorase-positive Neurons in the Major Pelvic Ganglion, % Dark Stain ([8]; 8 Weeks): 64.3 ± 10.7 %
- NADPH Diaphorase-positive Neurons in the Major Pelvic Ganglion, % Light Stain ([8]; 8 Weeks): 35.6 ± 10.7%
- NADPH Diaphorase-positive Neurons in the Major Pelvic Ganglion, Dark Stain ([8]; 8 Weeks): 69.4 ± 21.1
- NADPH Diaphorase-positive Neurons in the Major Pelvic Ganglion, Light Stain ([8]; 8 Weeks): 38.4 ± 14
- NADPH Diaphorase-positive Neurons in the Major Pelvic Ganglion, Total ([8]; 8 Weeks): 107.8 ± 23.58
- sustained intracavernous pressures during the pharmacologic erection phase of cavernosometry, vs high cholesterol controls [9]: significantly higher
- Maximal intracavernous Pressure In Response to Electrostimulation [10]: 61.3 ± 12.5 cm H2O

B2: NT-4: neurotrophin-4 (protein, UniProt P34130 81-210, looked up)
Neurotrophin-4: GVSETAPASRRGELAVCDAVSGWVTDRRTAVDLRGREVEVLGEVPAAGGSPLRQYFFETRCKADNAEEGGPGAGGGGCRGVDRRHWVSECKAKQSYVRALTADAQGRVGWRWIRIDTACVCTLLSRTGRA
- FIBER LENGTH (average lengths of the growing fibers) ([7]; 48 hours after culturing): 81
